Reference: the Human Domainome abundance scans (Beltran et al. 2025)
± gives the uncertainty stated by the source.

B1: Chromodomain-helicase-DNA-binding protein 5, residues 338 to 390; numbered along this chain, Q8TDI0 (parent)
chain: YETDHQDYCEVCQQGGEIILCDTCPRAYHLVCLDPELEKAPEGKWSCPHCEKE

Variants of: B1
Experiment: abundance fitness (aPCA) (normalised: wild type 0, dead -1); higher = more abundant; growth selection in yeast, the domain comes from the species named
Details: Homo sapiens

Variant	abundance fitness
H29V	-1.1 ± 0.15
H29Q	-0.887 ± 0.2
H29E	-0.736 ± 0.16
H29A	-0.5 ± 0.12
H29T	-0.986 ± 0.2
H29W	-0.822 ± 0.17
H29G	-0.744 ± 0.099
H29N	-0.766 ± 0.32
H29L	-1.14 ± 0.15
H29M	-0.547 ± 0.17
H29F	-1.07 ± 0.39
H29P	-0.672 ± 0.16
H29K	-0.793 ± 0.17
H29D	-0.451 ± 0.15
H29Y	-0.719 ± 0.18
H29S	-0.882 ± 0.15
H29C	0.053 ± 0.16
Q14I	-0.385 ± 0.2
Q14L	-0.011 ± 0.11
Q14P	-1.04 ± 0.23
Q14C	-0.378 ± 0.12
Q14V	-0.107 ± 0.12
Q14G	0.118 ± 0.12
Q14H	-0.105 ± 0.17

Variant	abundance fitness
Q14F	-0.295 ± 0.14
Q14N	-0.065 ± 0.17
Q14S	0 ± 0.1
Q14Y	-0.001 ± 0.22
Q14D	-0.004 ± 0.17
Q14M	0.084 ± 0.16
Q14W	-0.237 ± 0.17
Q14T	0.193 ± 0.14
Q14A	-0.093 ± 0.17
Q14R	-0.019 ± 0.099
R26F	-0.211 ± 0.17
R26W	-0.18 ± 0.14
R26Y	-0.144 ± 0.19
R26V	-0.207 ± 0.13
R26A	0.009 ± 0.13
R26T	-0.436 ± 0.26
R26Q	0.205 ± 0.16
R26G	-0.029 ± 0.089
R26H	0.493 ± 0.19
R26C	0.012 ± 0.15
R26S	0.002 ± 0.1
R26M	0.144 ± 0.14
R26D	-0.296 ± 0.16
R26L	0.154 ± 0.12

Variant	abundance fitness
R26I	-0.059 ± 0.19
R26K	0.094 ± 0.17
R26P	-0.87 ± 0.23
P25M	-0.167 ± 0.2
P25Y	-0.08 ± 0.34
P25H	-0.833 ± 0.43
P25C	-0.278 ± 0.3
P25S	-0.1 ± 0.14
P25N	-0.084 ± 0.22
P25L	-0.157 ± 0.13
P25G	-0.001 ± 0.11
P25T	0.057 ± 0.16
P25R	-0.107 ± 0.12
P25W	-0.081 ± 0.16
P25V	-0.124 ± 0.12
P25Q	-0.093 ± 0.23
P25I	0.064 ± 0.24
P25E	-0.287 ± 0.21
P25K	0.109 ± 0.21
D22F	-0.597 ± 0.21
D22E	-0.101 ± 0.2
D22N	-0.015 ± 0.14
D22T	0.187 ± 0.17
D22L	-0.059 ± 0.12

Variant	abundance fitness
D22P	0.111 ± 0.13
D22R	-0.067 ± 0.1
D22H	-0.078 ± 0.24
D22S	-0.244 ± 0.12
D22W	-0.373 ± 0.17
D22C	-0.432 ± 0.15
D22Y	0.088 ± 0.21
D22I	-0.177 ± 0.21
D22A	0.149 ± 0.15
D22M	-0.185 ± 0.14
D22K	-0.171 ± 0.19
I18W	-0.02 ± 0.12
I18Q	0.28 ± 0.18
I18S	0.065 ± 0.11
I18C	-0.508 ± 0.15
I18L	-0.098 ± 0.1
I18A	0.177 ± 0.12
I18M	0.007 ± 0.14
I18T	0.021 ± 0.15
I18D	-0.172 ± 0.17
I18H	0.03 ± 0.18
I18P	-0.228 ± 0.17
I18Y	0.145 ± 0.18
I18F	-0.058 ± 0.16

Variant	abundance fitness
I18E	-0.454 ± 0.19
I18V	-0.286 ± 0.12
I18N	0.039 ± 0.22
I18K	0.137 ± 0.22
I18G	0.047 ± 0.097
I18R	0.021 ± 0.1
T23D	-0.09 ± 0.17
T23L	-0.07 ± 0.12
T23E	0.026 ± 0.17
T23K	-0.457 ± 0.22
T23S	-0.01 ± 0.12
T23N	0.034 ± 0.17
T23H	-0.397 ± 0.23
T23W	-0.443 ± 0.17
T23P	-0.922 ± 0.22
T23I	-0.135 ± 0.2
T23F	0.166 ± 0.16
T23Y	-0.161 ± 0.19
T23A	-0.545 ± 0.13
T23M	0.114 ± 0.17
T23R	-0.12 ± 0.12
T23C	-0.177 ± 0.23
T23G	-0.305 ± 0.11
T23Q	-0.15 ± 0.2

Variant	abundance fitness
E10Y	0.209 ± 0.14
L30I	-0.703 ± 0.33
L30A	0.094 ± 0.1
L30C	-0.096 ± 0.18
L30K	0.04 ± 0.18
L30G	0.092 ± 0.096
L30E	0.059 ± 0.12
L30D	-0.206 ± 0.23
L30H	-0.194 ± 0.26
L30F	-0.063 ± 0.16
L30M	0.095 ± 0.087
I19E	-0.056 ± 0.13
I19L	0.121 ± 0.11
I19Q	0.029 ± 0.15
I19R	0.115 ± 0.088
I19F	0.051 ± 0.22
I19S	-0.104 ± 0.12
I19K	0.315 ± 0.16
I19P	-1.07 ± 0.21
I19Y	-0.226 ± 0.2
I19A	0.109 ± 0.1
I19V	-0.085 ± 0.11
I19T	0.303 ± 0.12
I19C	-0.137 ± 0.16

Variant	abundance fitness
I19M	0.256 ± 0.13
I19G	-0.177 ± 0.094
I19H	0.128 ± 0.19
I19N	0.161 ± 0.16
I19D	-0.023 ± 0.15
A27H	-0.097 ± 0.18
A27W	-0.186 ± 0.17
A27Q	0.171 ± 0.19
A27E	-0.55 ± 0.15
A27C	-0.093 ± 0.18
A27D	-0.258 ± 0.17
A27P	-0.231 ± 0.14
A27M	-0.29 ± 0.17
A27F	-0.027 ± 0.14
A27K	-0.242 ± 0.21
A27N	0.048 ± 0.21
A27R	-0.086 ± 0.1
A27T	0.074 ± 0.14
A27V	-0.211 ± 0.12
A27Y	-0.159 ± 0.24
A27I	-0.021 ± 0.21
A27L	-0.204 ± 0.13
A27S	-0.133 ± 0.12
Y28L	-0.148 ± 0.13

Variant	abundance fitness
Y28N	-0.193 ± 0.28
Y28M	-0.148 ± 0.16
Y28H	-0.158 ± 0.23
Y28E	-0.668 ± 0.19
Y28F	-0.315 ± 0.19
Y28R	0.023 ± 0.096
Y28P	-0.85 ± 0.22
Y28A	-0.085 ± 0.14
Y28G	-0.125 ± 0.092
Y28S	-0.075 ± 0.12
Y28Q	-0.709 ± 0.19
Y28D	-0.713 ± 0.28
Y28C	0.001 ± 0.16
Y28V	0.054 ± 0.12
Y28I	-0.293 ± 0.2
Y28W	-0.098 ± 0.12
E17S	-0.354 ± 0.13
E17D	-0.182 ± 0.16
E17C	-0.105 ± 0.13
E17M	0.1 ± 0.18
E17N	0.2 ± 0.2
E17T	-0.109 ± 0.19
E17Q	-0.377 ± 0.21
E17F	-0.213 ± 0.18

Variant	abundance fitness
E17K	0.105 ± 0.16
E17P	-0.445 ± 0.17
E17R	-0.189 ± 0.1
E17I	0.227 ± 0.21
E17W	0.188 ± 0.14
E17H	-0.435 ± 0.32
E17G	-0.07 ± 0.09
E17V	-0.358 ± 0.1
E17L	-0.096 ± 0.12
V11W	-0.038 ± 0.13
V11A	0.095 ± 0.1
V11K	0.481 ± 0.13
V11Y	0.033 ± 0.14
V11H	0.691 ± 0.15
V11S	0.27 ± 0.09
V11E	0.397 ± 0.1
V11N	-0.013 ± 0.14
V11D	0.018 ± 0.15
V11T	0.341 ± 0.11
V11C	0.179 ± 0.17
V11L	0.245 ± 0.093
V11G	0.376 ± 0.094
V11P	0.061 ± 0.11
V11M	0.459 ± 0.11

Variant	abundance fitness
C21G	-0.853 ± 0.11
C21V	-0.519 ± 0.13
C21I	-0.912 ± 0.35
C21F	-1.22 ± 0.28
C21K	-0.805 ± 0.2
C21Y	-0.739 ± 0.17
C21R	-0.929 ± 0.14
C21Q	-0.973 ± 0.28
C21T	-0.995 ± 0.23
C21M	-0.701 ± 0.18
C21P	-0.907 ± 0.2
C21W	-1.08 ± 0.23
C21A	-0.563 ± 0.14
C21E	-1.08 ± 0.28
C21S	-0.811 ± 0.13
C21D	-0.921 ± 0.17
C21L	-0.872 ± 0.15
C21N	-0.889 ± 0.27
Q13E	-0.091 ± 0.14
Q13L	-0.109 ± 0.091
Q13D	-0.191 ± 0.13
Q13A	-0.034 ± 0.1
Q13N	0.029 ± 0.18
Q13P	-0.097 ± 0.14

Variant	abundance fitness
Q13V	0.056 ± 0.096
Q13R	0.163 ± 0.085
Q13S	0.157 ± 0.094
Q13M	0.002 ± 0.13
Q13F	-0.258 ± 0.15
Q13G	0.18 ± 0.084
Q13T	-0.185 ± 0.11
Q13K	-0.233 ± 0.15
Q13W	-0.104 ± 0.1
Q13I	-0.204 ± 0.17
Q13H	-0.268 ± 0.23
Q13Y	-0.198 ± 0.16
Q13C	-0.076 ± 0.14
C12S	-1.04 ± 0.13
C12Q	-0.79 ± 0.13
C12N	-0.318 ± 0.2
C12K	-0.652 ± 0.13
C12F	-0.788 ± 0.15
C12E	-0.866 ± 0.14
C12R	-1 ± 0.12
C12V	-0.759 ± 0.11
C12P	-0.901 ± 0.13
C12T	-0.776 ± 0.12
C12G	-0.752 ± 0.11

Variant	abundance fitness
C12I	-0.912 ± 0.16
C12H	-0.539 ± 0.21
C12M	-0.671 ± 0.13
C12Y	-0.891 ± 0.15
C12A	-0.688 ± 0.11
C12W	-1.02 ± 0.16
C12L	-0.901 ± 0.1
L20A	0.139 ± 0.12
L20T	0.258 ± 0.14
L20M	0.371 ± 0.17
L20K	0.099 ± 0.14
L20R	0.266 ± 0.092
L20P	0.234 ± 0.14
L20D	0.127 ± 0.17
L20G	0.297 ± 0.087
L20S	0.233 ± 0.1
L20Q	0.414 ± 0.16
L20F	0.078 ± 0.14
L20H	0.224 ± 0.15
L20Y	0.169 ± 0.15
L20I	-0.095 ± 0.15
L20N	0.091 ± 0.16
L20E	-0.119 ± 0.16
L20V	0.051 ± 0.1

Variant	abundance fitness
G15R	0.141 ± 0.09
G15Q	-0.103 ± 0.15
G15A	0.176 ± 0.13
G15L	-0.209 ± 0.14
G15E	-0.112 ± 0.16
G15M	0.143 ± 0.2
G15C	0.021 ± 0.14
G15T	-0.014 ± 0.14
G15K	0.155 ± 0.16
G15Y	0.083 ± 0.17
G15D	-0.167 ± 0.18
G15I	-0.414 ± 0.39
G15W	-0.136 ± 0.14
G15P	-0.553 ± 0.19
G15N	0.116 ± 0.19
G15V	-0.143 ± 0.12
G16E	0.027 ± 0.11
G16V	-0.17 ± 0.1
G16A	-0.037 ± 0.11
G16C	-0.336 ± 0.27
G16T	0.265 ± 0.13
G16N	0.259 ± 0.19
G16R	0.098 ± 0.1
G16Y	0.193 ± 0.2

Variant	abundance fitness
G16L	0.239 ± 0.11
G16Q	0.183 ± 0.23
G16H	0.435 ± 0.22
G16M	0.255 ± 0.14
G16I	-0.195 ± 0.28
G16S	0.114 ± 0.13
C24S	-0.753 ± 0.13
C24L	-0.682 ± 0.13
C24T	-0.586 ± 0.19
C24V	-0.979 ± 0.16
C24Y	-0.784 ± 0.16
C24F	-0.567 ± 0.29
C24N	-1.15 ± 0.48
C24Q	-0.879 ± 0.21
C24E	-0.979 ± 0.21
C24W	-0.736 ± 0.14
C24D	-1.16 ± 0.35
C24P	-0.437 ± 0.34
C24R	-0.804 ± 0.12
C24M	-0.772 ± 0.2
C24I	-0.88 ± 0.35
C24K	-0.917 ± 0.23
